Test results from patent US20230181701A1.

Target: CD20 on Daudi cells (UniProt P11836)
Assay: cell-based or functional assay

Chain of UniProt P11836 (P11836 whole entry): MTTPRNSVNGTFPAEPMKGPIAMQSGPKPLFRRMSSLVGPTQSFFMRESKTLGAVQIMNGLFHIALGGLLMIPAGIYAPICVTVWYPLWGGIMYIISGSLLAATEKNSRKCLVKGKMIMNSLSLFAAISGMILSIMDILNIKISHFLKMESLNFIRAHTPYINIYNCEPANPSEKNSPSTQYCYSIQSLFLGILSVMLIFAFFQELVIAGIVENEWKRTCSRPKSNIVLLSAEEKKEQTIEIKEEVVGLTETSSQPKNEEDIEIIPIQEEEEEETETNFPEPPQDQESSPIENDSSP

With “Anti-CD20 IgG (Rituximab, N7022, 10 mg/mL, Mabthera) (antibody)” the CDC of Daudi cells with baby rabbit serum (CCK8) (% of cells dead) was 70.
